Experimental data: patent publication US5710126A, “T cell epitopes of ryegrass pollen allergen” (ImmuLogic Pharmaceutical Corporation, priority 1995, dated 1998)

Assays:
[1] = tested on: T cell lines from grass-allergic patients primed in vitro with affinity purified Lol p V; assay: T cell proliferation (tritiated thymidine uptake) of Lol p V-primed T cell lines restimulated with peptides or proteins; type: cell-based, human; conditions: one allergic patient; results not shown; 2-50 μg/ml antigen
Excerpt: As discussed in Example 2, human T cell stimulating activity can be tested by culturing T cells obtained from an individual sensitive to Lol p V allergen, (i.e., an individual who has an IgE mediated immune response to Lol p V allergen) with a peptide derived from the allergen and determining whether proliferation of T cells occurs in response to the peptide as measured, e.g., by cellular uptake of tritiated thymidine. Stimulation indices for responses by T cells to peptides can be calculated as the maximum CPM in response to a peptide divided by the control CPM. A stimulation index (S.I.) equal to or greater than two times the background level is considered "positive". […]
In addition, preferred peptides have a positivity index (P.I.) of at least about 60, more preferably about 100, more preferably at least about 200 and most preferably at least about 300. The positivity index for a peptide is determined by multiplying the mean T cell stimulation index by the percent of individuals, in a population of individuals sensitive to ryegrass pollen (e.g., preferably a population of at least 15 individuals,more preferably a population of at least 30 individuals or more), who have a T cell stimulation index to such peptide of at least 2.0. […]
This amount of priming antigen was determined to be optimal for the activation of T cells from most grass-allergic patients. […]

human IgE = assay: Direct ELISA of human IgE binding to coated antigen
Procedure: (§1) To examine the importance of Lol p V, both direct and competition ELISA assays were performed. In the direct ELISA, 100 μl of 10 μg/ml of antigen in Phosphate Buffered Saline, pH 7.4 (PBS) was used to coat Immulon II (Dynatech, Chantilly, Va.) 96 well plates for 4 hours at room temperature (RT) or overnight (O/N) at 4° C. In between each step the plates were washed 3× with PBS-T. The excess coating antigen(s) was removed and the wells blocked with 300 μl/well 0.5% gelatin+1 mg/ml PVP in PBS for 1 hour at RT. Serially diluted patient plasma or the diluent PBS+0.05% Tween^-20 was incubated in at 100 μl/well in duplicate wells overnight at 4° C. […] Plates were read on a MR7000 plate reader (Dynatech, Chantilly, Va.) with a 450 nm filter. The absorbance levels of duplicate wells were averaged. The results were graphed as absorbance vs. dilution. […] The results are plotted as the absorbance vs. the log of the concentration of competing antigen.
For the direct ELISA, wells were coated with either soluble pollen extract (SPE) of ryegrass pollen or rLol p V (purified native Lol p V may have a small amount of Lol p I; use of recombinant material assures that the IgE binding is only to Lol p V ) and human IgE antibody binding to these antigens was analyzed. […]

[2] = tested on: human basophil mediator release; assay: Histamine release assay on whole blood of a ryegrass allergic individual; type: cell-based; conditions: one ryegrass allergic individual; 37° C., 30 minutes; FIG. 12
Procedure: A histamine release assay was performed on one ryegrass allergic individual, using Lol p SPE and rLol p V as the added antigens. This assay is a measure of IgE reactivity through human basophil mediator release, and it is based on the detection of an acylated derivative of histamine using a specific monoclonal antibody (Morel, A. M. and Delaage, M. A.; 1988, J. Allergy Clin. Immunol. 82:646-654). The reagents for this radioimmunoassay are sold as a kit by Amac Inc. (Westbrook, Me.). Whole heparinized blood drawn from a grass allergic individual and then 200 μl aliquots were mixed with an equal amount of the grass antigens SPE and rLol p V at various concentrations or the diluent, PACM buffer (25 mM PIPES, 100 mM NaCl, 5 mM KCL, 4 mM CaCl2, 1 mM MgCl2, 0.003% HSA, pH7.3) in 1.5 ml polypropylene. The release reactions were carried out at 37° C. for 30 minutes. After this incubation, the samples were centrifuged at 1500 RPM for 3 minutes and the supernatants removed. For the total histamine release, 0.1 ml of blood was added to 0.9 ml of PACM buffer, vortexed, and then boiled for 3 minutes. The samples were spun at 13000 RPM and the supernatant removed for analysis. Duplicate samples were used to measure total release. All of the supernatants are diluted 1:4 in acylation buffer and the remainder of the assay is performed according to the manufacturer's instructions.

[3] = tested on: human IgE binding to ryegrass pollen SPE; assay: Competition ELISA for IgE binding to ryegrass pollen SPE; conditions: IgE source PHP-A or individual patient plasma; FIGS. 10 and 11
Procedure: as §1
In the competition assay, ELISA wells were coated with ryegrass pollen SPE and then allergic patient IgE binding was measured in the presence of competing ryegrass pollen SPE, purified native Lol p V, or rLol p V. The source of allergic IgE in this assay was PHP-A (FIG. 10) or individual patient plasma (FIG. 11). […]

specific IgE antibody = conditions: immunoblotting; Lol p V isoforms; WO 93/04174; cited from earlier work

B1: rLol p V: bacterially expressed recombinant Lol p V encoded by clone 12R, with His6 sequence, purified on Ni chelating column (protein)
chain: ADAGYTPAAAATPATPAATPAAAGGKATTDEQKLLEDVNAGFKAAVAAAANAPPADKFKIFEAAFSESSKGLLATSAAKAPGLIPKLDTAYDVAYKAAEGATPEAKYDAFVTALTEALRVIAGALEVHAVKPATEEVPAAKIPTGELQIVDKIDAAFKIAATAANAAPTNDKFTVFESAFNKALNECTGGAYETYKFIPSLEAAVKQAYAATVAAAPEVKYAVFEAALTKAITAMTQAQKAGKPAAAAATGAATVATGAATAAAGAATAAAGGYKA
[1]
  T cell proliferative response of one patient: responds well
Human IgE; IgE source PHP-A, PHP-B or four individual patients, FIGS. 6-9
  IgE binding in direct ELISA: high IgE binding
Human IgE; IgE source PHP-B, preliminary assay, FIGS. 13a and 13b
  IgE binding in direct ELISA to Lol p V peptides and protein: very high IgE binding
[2]
  histamine release: strong histamine release over a wide concentration range

B2: Lol p V: major Lolium perenne L. ryegrass pollen allergen, Group V allergen (protein)
chain: ADAGYTPAAAATPATPAATPAAAGGKATTDEQKLLEDVNAGFKAAVAAAANAPPADKFKIFEAAFSESSKGLLATSAAKAPGLIPKLDTAYDVAYKAAEGATPEAKYDAFVTALTEALRVIAGALEVHAVKPATEEVPAAKIPTGELQIVDKIDAAFKIAATAANAAPTNDKFTVFESAFNKALNECTGGAYETYKFIPSLEAAVKQAYAATVAAAPEVKYAVFEAALTKAITAMTQAQKAGKPAAAAATGAATVATGAATAAAGAATAAAGGYKA
[3]
  competition for IgE binding to ryegrass pollen SPE: a significant portion of IgE against Lol p SPE is specific for Lol p V
Specific IgE antibody
  ryegrass pollen sensitive patients possessing specific IgE antibody that bound: 80%

B3: purified native Lol p V: Lol p V allergen affinity purified from ryegrass pollen extract on a mAb 1B9 column (protein)
chain: ADAGYTPAAAATPATPAATPAAAGGKATTDEQKLLEDVNAGFKAAVAAAANAPPADKFKIFEAAFSESSKGLLATSAAKAPGLIPKLDTAYDVAYKAAEGATPEAKYDAFVTALTEALRVIAGALEVHAVKPATEEVPAAKIPTGELQIVDKIDAAFKIAATAANAAPTNDKFTVFESAFNKALNECTGGAYETYKFIPSLEAAVKQAYAATVAAAPEVKYAVFEAALTKAITAMTQAQKAGKPAAAAATGAATVATGAATAAAGAATAAAGGYKA
modifications: The 5 proline residues at the N-terminus were found to be all hydroxyprolines
[1]
  T cell proliferative response of one patient: responds well
